Laboratory results: US20210238304A1
“And” between values parts separate entries of the source, which are not always exact repeats. Identical values can stand only once.

Legend:
[1] = biological target: human mesothelin (recombinant, soluble) (human) (UniProt Q13421); assay: SPR BIAcore, parental mAb captured, mesothelin analyte
[2] = biological target: human mesothelin (recombinant, soluble) (human) (UniProt Q13421); assay: SPR BIAcore, captured mAb, mesothelin analyte

human mesothelin (recombinant, soluble) (human), sequence (Q13421 other isoform, or with tags, fused parts or gaps limits assumed): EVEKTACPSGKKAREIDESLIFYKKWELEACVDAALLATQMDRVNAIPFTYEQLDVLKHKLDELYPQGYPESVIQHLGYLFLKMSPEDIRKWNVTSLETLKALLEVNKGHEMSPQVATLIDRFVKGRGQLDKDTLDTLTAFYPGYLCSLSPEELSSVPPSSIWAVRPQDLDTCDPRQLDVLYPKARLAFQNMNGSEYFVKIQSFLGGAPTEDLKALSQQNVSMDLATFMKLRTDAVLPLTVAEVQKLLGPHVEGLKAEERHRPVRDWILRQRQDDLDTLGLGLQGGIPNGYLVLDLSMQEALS

Row | Kd [1] [nM] | koff [1] [s⁻¹] | kon [1] [M⁻¹ s⁻¹] | Kd [2] | koff [2] | kon [2] | Binder
1 | 6.3 | 0.0039 | 650000 | – | – | – | 111B10 (rabbit-human chimeric anti-human mesothelin antibody) (antibody, from another filing, V domains shown) VH: QSVEESGGRLVTPGTPLTLTCTVSGFSLNNYAMSWVRQAPGKGLEWIGSISTGGLAFYANWAKGRFTISRTSTTVDLKMTSLTTEDTATYFCGRNGGGSYIFYYFDLWGQGTLVTVSS VL: AFELTQTPSSVEAAVGGTITIKCQASQSISSYLSWYQQKPGQPPKLLIYSASTLASGVSSRFKGSGSGTEYTLTISDLECADAATYFCQSYYDIGTSTFGGGTEVVVKR
2 | 1.4 | 0.00049 | 380000 | 0.706 nM and 0.529 nM | 0.000481 s⁻¹ and 0.000609 s⁻¹ | 682000 M⁻¹ s⁻¹ and 1.15e+06 M⁻¹ s⁻¹ | 346C6 (rabbit-human chimeric anti-human mesothelin antibody) (antibody, from another filing, V domains shown) VH: QSVEESGGRLVKPDESLTLTCTASGFSLSSYAMIWVRQAPGEGLEWIGTISTGGITYYASWAKGRFTISKTSTTVDLKITSPTTEDTATYFCARGGYAASSAYYLPYYFDLWGQGTLVTVSS VL: AAVLTQTPSPVSAAVGGTVTISCQSSQSVYNNNNLAWFQQKPGQPPKLLIYLASTLASGVPSRFSGSGSGTQFTLTISGVQCDDAATYYCLGGCDDDADTFAFGGGTEVVVKR
3 | 3.4 | 0.00065 | 220000 | – | – | – | 33O11 zu (humanized anti-human mesothelin antibody) (antibody, from another filing, V domains shown) VH: EVQLVESGGGLVQPGGSLRLSCAASGISLSSDAISWVRQAPGKGLEYIGIINGGGNTYYASWAKGRFTISRHNSKNTLYLQMNSLRAEDTAVYYCARGIQHGGGNSDYYYYGMDLWGQGTLVTVSS VL: DIQMTQSPSSLSASVGDRVTITCQASQSISSVLSWYQQKPGKAPKLLIYLASTLASGVPSRFSGSGSGTDFTLTISSLQCEDIATYYCQTNYGTSSSNYGFAFGGGTKVEIKR
4 | 1.1 | 0.00026 | 240000 | 0.47 nM and 0.131 nM | 0.000129 s⁻¹ and 0.000345 s⁻¹ | – | 201C15 (rabbit-human chimeric anti-human mesothelin antibody) (antibody, from another filing, V domains shown) VH: QSVKESGGRLVTPGTPLTLTCTVSGIDLSSYAMGWFRQAPGKGLEYIGTINIGGRVYYASWAKGRFTISRTSTTVDLKAPSLTAEDTATYFCARYYNGGSYDIWGPGTLVTVSL VL: DVVMTQTPASASEPVGGTVTIKCQASESIYRVLAWYQQKPGQPPKLLIYDTSTLASGAPSRFKGSGYGTEFTLTISGVQCEDAATYYCQGGYYADSYGIAFGGGTEVVVKR
